Measurements published in patent US20010010923A1, “MODIFIED CARBOXYPEPTIDASE” (priority 1997, published 2001).
Entries after “also recorded” stand apart in the source; their conditions may differ. Marks after values point to notes of the source that are not given here.

Legend:
[1] = Transpeptidation of FA-Ala-OBzl with H-Leu-NH2, Table 3; format: biochemical; details: for fa / KN(app): FA-Ala-OBzl 0.2 mM, pH 7.5; for fa: H-Leu-NH2; for change in famax and KN(app), in words: compared with wild type, Table 3; for KN(app): nucleophile H-Leu-NH2 concentration at which fa is half of maximum
Procedure: (§1) Transamidation reactions were carried out generally as described in PCT Application WO 95/20039. In general, the method included dissolving the nucleophile (H-Leu-NH2, unless otherwise indicated) in 50 mM HEPES, 5 mM EDTA and adjusting the pH to 7.5, 5 μl of peptide substrate (8 mM Bz-G-A-R-A-R-A-OH, unless otherwise indicated, in methanol) was added to 190 μl nucleophile solution followed by 5 μl enzyme, resulting in a substrate concentration of 0.2 mM.
(§2) During the reaction, 20 μl aliquots were removed from the reaction mixture and added to 50 μl 1% trifluoroacetic acid to quench the reaction. The reactant composition was determined by HPLC using a Waters HPLC equipped with a C-18 Waters Novapac 4μ reverse phase column and various gradients of acetonitrile in 0.1% trifluoroacetic acid. The separation was monitored at 254 nm allowing the direct quantification of the products from the integrated peak areas. The composition of the reaction mixture was determined at least twvice during the reaction, the first when 20-50% (preferably 35%) of the substrate had been consumed in the reaction and the second time when 50-90% (preferably 80%) of the peptide substrate had been consumed.
(§3) The fraction of aminolysis (fa) was expressed as the ratio between the formed aminolysis product and the sum of all products formed. Unconsumed substrate was disregarded in the calculations.
Site specific mutagenesis was performed as described in Example 1 to produce the specific substitution mutants described below. Transamidation reactions were performed as described for Example 1.
In table 3, below, KN(app) represents the nucleophile concentration at which fa is half of the maximum value (a measure for the dissociation constant of the nucleophile). famax is the highest possible fa obtained at saturation of the enzyme with the nucleophile.
KN(app) indicates the concentration at which famax/2 is reached and thus describes the apparent binding constant of the nucleophile. Because the competing hydrolysis reaction is thought to occur while the leaving group remains attached to the to the acyl-enzyme intermediate, a low KN(app) is preferred.

[2] = Transpeptidation of FA-Ala-Xaa-OH with H-Gly-NH2, Table 2; format: biochemical; details: for Fraction of aminolysis (fa), P1' Ala: FA-Ala-Ala-OH 0.2 mM; for Fraction of aminolysis (fa), P1' Ala / Fraction of aminolysis (fa), P1' Leu / Fraction of aminolysis (fa), P1' Met / Fraction of aminolysis (fa), P1' Phe / Fraction of aminolysis (fa), P1' Val: 1.9 M H-Gly-NH2, pH 7.5, room temperature; for Fraction of aminolysis (fa), P1' Leu: FA-Ala-Leu-OH 0.2 mM; for Fraction of aminolysis (fa), P1' Met: FA-Ala-Met-OH 0.2 mM; for Fraction of aminolysis (fa), P1' Phe: FA-Ala-Phe-OH 0.2 mM; for Fraction of aminolysis (fa), P1' Val: FA-Ala-Val-OH 0.2 mM; for fraction of aminolysis compared to wild type, in words: larger, hydrophobic leaving group such as leucine
Procedure: as §1, §2, §3
Site specific mutagenesis was performed as described for Example 1 to produce the S1 mutants used below.
Transamidation reactions were performed as described for Example 1.

B1: T60M: carboxypeptidase Y S1' mutant, substitution T60M (protein, UniProt P00729 112-532, looked up, variant T60M)
Carboxypeptidase Y: KIKDPKILGIDPNVTQYTGYLDVEDEDKHFFFWTFESRNDPAKDPVILWLNGGPGCSSLMGLFFELGPSSIGPDLKPIGNPYSWNSNATVIFLDQPVNVGFSYSGSSGVSNTVAAGKDVYNFLELFFDQFPEYVNKGQDFHIAGESYAGHYIPVFASEILSHKDRNFNLTSVLIGNGLTDPLTQYNYYEPMACGEGGEPSVLPSEECSAMEDSLERCLGLIESCYDSQSVWSCVPATIYCNNAQLAPYQRTGRNVYDIRKDCEGGNLCYPTLQDIDDYLNQDYVKEAVGAEVDHYESCNFDINRNFLFAGDWMKPYHTAVTDLLNQDLPILVYAGDKDFICNWLGNKAWTDVLPWKYDEEFASQKVRNWTASITDEVAGEVKSYKHFTYLRVFNGGHMVPFDVPENALSMVNEWIHGGFSL
- fa [1]: 0.98^b
- change in famax and KN(app), in words [1]: increase in both famax and KN(app)
- Fraction of aminolysis (fa), P1' Ala [2]: 0.78
- Fraction of aminolysis (fa), P1' Leu [2]: 0.03
- Fraction of aminolysis (fa), P1' Met [2]: 0.01
- Fraction of aminolysis (fa), P1' Phe [2]: 0.18
- Fraction of aminolysis (fa), P1' Val [2]: 0.15

B2: M398F: carboxypeptidase Y S1' mutant, substitution M398F (protein, UniProt P00729 112-532, looked up, variant M398F)
Carboxypeptidase Y: KIKDPKILGIDPNVTQYTGYLDVEDEDKHFFFWTFESRNDPAKDPVILWLNGGPGCSSLTGLFFELGPSSIGPDLKPIGNPYSWNSNATVIFLDQPVNVGFSYSGSSGVSNTVAAGKDVYNFLELFFDQFPEYVNKGQDFHIAGESYAGHYIPVFASEILSHKDRNFNLTSVLIGNGLTDPLTQYNYYEPMACGEGGEPSVLPSEECSAMEDSLERCLGLIESCYDSQSVWSCVPATIYCNNAQLAPYQRTGRNVYDIRKDCEGGNLCYPTLQDIDDYLNQDYVKEAVGAEVDHYESCNFDINRNFLFAGDWMKPYHTAVTDLLNQDLPILVYAGDKDFICNWLGNKAWTDVLPWKYDEEFASQKVRNWTASITDEVAGEVKSYKHFTYLRVFNGGHFVPFDVPENALSMVNEWIHGGFSL
- fa [1]: 0.96^a
- change in famax and KN(app), in words [1]: increase in both famax and KN(app)
- KN(app) [1]: 2.3^b mM
- Fraction of aminolysis (fa), P1' Ala [2]: 0.87
- Fraction of aminolysis (fa), P1' Leu [2]: 0.85
- Fraction of aminolysis (fa), P1' Met [2]: 0.86
- Fraction of aminolysis (fa), P1' Phe [2]: 0.85
- Fraction of aminolysis (fa), P1' Val [2]: 0.83
- fraction of aminolysis compared to wild type, in words [2]: improvement in fraction of aminolysis obtained; also recorded: most dramatic improvement; also recorded: enhanced transpeptidation

B3: M398C: carboxypeptidase Y S1' mutant, substitution M398C (protein, UniProt P00729 112-532, looked up, variant M398C)
Carboxypeptidase Y: KIKDPKILGIDPNVTQYTGYLDVEDEDKHFFFWTFESRNDPAKDPVILWLNGGPGCSSLTGLFFELGPSSIGPDLKPIGNPYSWNSNATVIFLDQPVNVGFSYSGSSGVSNTVAAGKDVYNFLELFFDQFPEYVNKGQDFHIAGESYAGHYIPVFASEILSHKDRNFNLTSVLIGNGLTDPLTQYNYYEPMACGEGGEPSVLPSEECSAMEDSLERCLGLIESCYDSQSVWSCVPATIYCNNAQLAPYQRTGRNVYDIRKDCEGGNLCYPTLQDIDDYLNQDYVKEAVGAEVDHYESCNFDINRNFLFAGDWMKPYHTAVTDLLNQDLPILVYAGDKDFICNWLGNKAWTDVLPWKYDEEFASQKVRNWTASITDEVAGEVKSYKHFTYLRVFNGGHCVPFDVPENALSMVNEWIHGGFSL
- fa [1]: 0.95^a
- KN(app) [1]: 0.74^b mM
- Fraction of aminolysis (fa), P1' Ala [2]: 0.93
- Fraction of aminolysis (fa), P1' Leu [2]: 0.75
- Fraction of aminolysis (fa), P1' Met [2]: 0.65
- Fraction of aminolysis (fa), P1' Phe [2]: 0.64
- Fraction of aminolysis (fa), P1' Val [2]: 0.52
- fraction of aminolysis compared to wild type, in words [2]: improvement in fraction of aminolysis obtained; also recorded: most dramatic improvement; also recorded: enhanced transpeptidation

B4: M398N: carboxypeptidase Y S1' mutant, substitution M398N (protein, UniProt P00729 112-532, looked up, variant M398N)
Carboxypeptidase Y: KIKDPKILGIDPNVTQYTGYLDVEDEDKHFFFWTFESRNDPAKDPVILWLNGGPGCSSLTGLFFELGPSSIGPDLKPIGNPYSWNSNATVIFLDQPVNVGFSYSGSSGVSNTVAAGKDVYNFLELFFDQFPEYVNKGQDFHIAGESYAGHYIPVFASEILSHKDRNFNLTSVLIGNGLTDPLTQYNYYEPMACGEGGEPSVLPSEECSAMEDSLERCLGLIESCYDSQSVWSCVPATIYCNNAQLAPYQRTGRNVYDIRKDCEGGNLCYPTLQDIDDYLNQDYVKEAVGAEVDHYESCNFDINRNFLFAGDWMKPYHTAVTDLLNQDLPILVYAGDKDFICNWLGNKAWTDVLPWKYDEEFASQKVRNWTASITDEVAGEVKSYKHFTYLRVFNGGHNVPFDVPENALSMVNEWIHGGFSL
- fa [1]: 0.83^a
- KN(app) [1]: 1.2^c mM
- Fraction of aminolysis (fa), P1' Ala [2]: 0.92
- Fraction of aminolysis (fa), P1' Leu [2]: 0.36
- Fraction of aminolysis (fa), P1' Met [2]: 0.70
- Fraction of aminolysis (fa), P1' Phe [2]: 0.11
- Fraction of aminolysis (fa), P1' Val [2]: 0.52
- fraction of aminolysis compared to wild type, in words [2]: improvement in fraction of aminolysis obtained; also recorded: enhanced transpeptidation

B5: T60A: carboxypeptidase Y S1' mutant, substitution T60A (protein, UniProt P00729 112-532, looked up, variant T60A)
Carboxypeptidase Y: KIKDPKILGIDPNVTQYTGYLDVEDEDKHFFFWTFESRNDPAKDPVILWLNGGPGCSSLAGLFFELGPSSIGPDLKPIGNPYSWNSNATVIFLDQPVNVGFSYSGSSGVSNTVAAGKDVYNFLELFFDQFPEYVNKGQDFHIAGESYAGHYIPVFASEILSHKDRNFNLTSVLIGNGLTDPLTQYNYYEPMACGEGGEPSVLPSEECSAMEDSLERCLGLIESCYDSQSVWSCVPATIYCNNAQLAPYQRTGRNVYDIRKDCEGGNLCYPTLQDIDDYLNQDYVKEAVGAEVDHYESCNFDINRNFLFAGDWMKPYHTAVTDLLNQDLPILVYAGDKDFICNWLGNKAWTDVLPWKYDEEFASQKVRNWTASITDEVAGEVKSYKHFTYLRVFNGGHMVPFDVPENALSMVNEWIHGGFSL
- fa [1]: 0.92^a
- Fraction of aminolysis (fa), P1' Ala [2]: 0.91
- Fraction of aminolysis (fa), P1' Leu [2]: 0.32
- Fraction of aminolysis (fa), P1' Met [2]: 0.16
- Fraction of aminolysis (fa), P1' Phe [2]: 0.12
- Fraction of aminolysis (fa), P1' Val [2]: 0.44
- fraction of aminolysis compared to wild type, in words [2]: improvement in fraction of aminolysis obtained; also recorded: most effective at increasing the fraction of aminolysis

B6: M398Y: carboxypeptidase Y S1' mutant, substitution M398Y (protein, UniProt P00729 112-532, looked up, variant M398Y)
Carboxypeptidase Y: KIKDPKILGIDPNVTQYTGYLDVEDEDKHFFFWTFESRNDPAKDPVILWLNGGPGCSSLTGLFFELGPSSIGPDLKPIGNPYSWNSNATVIFLDQPVNVGFSYSGSSGVSNTVAAGKDVYNFLELFFDQFPEYVNKGQDFHIAGESYAGHYIPVFASEILSHKDRNFNLTSVLIGNGLTDPLTQYNYYEPMACGEGGEPSVLPSEECSAMEDSLERCLGLIESCYDSQSVWSCVPATIYCNNAQLAPYQRTGRNVYDIRKDCEGGNLCYPTLQDIDDYLNQDYVKEAVGAEVDHYESCNFDINRNFLFAGDWMKPYHTAVTDLLNQDLPILVYAGDKDFICNWLGNKAWTDVLPWKYDEEFASQKVRNWTASITDEVAGEVKSYKHFTYLRVFNGGHYVPFDVPENALSMVNEWIHGGFSL
- fa [1]: 0.78^b
- KN(app) [1]: 5.2^c mM
- Fraction of aminolysis (fa), P1' Ala [2]: 0.90
- Fraction of aminolysis (fa), P1' Leu [2]: 0.90
- Fraction of aminolysis (fa), P1' Met [2]: 0.90
- Fraction of aminolysis (fa), P1' Phe [2]: 0.92
- Fraction of aminolysis (fa), P1' Val [2]: 0.89
- fraction of aminolysis compared to wild type, in words [2]: improvement in fraction of aminolysis obtained; also recorded: most dramatic improvement; also recorded: enhanced transpeptidation
